Source: article PMC12990809

Tests used:
Assay in all cases: pulldown
[1] = molecular target: estExt_fgenesh1_pg.C_Chr_03.00010087 (Ostreococcus tauri) (UniProt A0A096P7J9); settings: 20 nM protein, 1.5 uM RNA pool; 20 mM HEPES pH 7.8, 70 mM KCl, 10 mM NaCl, 10% glycerol, 2 mM DTT, 0.1 ug/uL BSA; 30 min, 4 C
[2] = molecular target: T1, hnrnpa0 (Xenopus tropicalis) (UniProt A0A8J0QIP1); settings: 20 nM protein, 1.5 uM RNA pool; 20 mM HEPES pH 7.8, 70 mM KCl, 10 mM NaCl, 10% glycerol, 2 mM DTT, 0.1 ug/uL BSA; 30 min, 4 C
T1 sequence: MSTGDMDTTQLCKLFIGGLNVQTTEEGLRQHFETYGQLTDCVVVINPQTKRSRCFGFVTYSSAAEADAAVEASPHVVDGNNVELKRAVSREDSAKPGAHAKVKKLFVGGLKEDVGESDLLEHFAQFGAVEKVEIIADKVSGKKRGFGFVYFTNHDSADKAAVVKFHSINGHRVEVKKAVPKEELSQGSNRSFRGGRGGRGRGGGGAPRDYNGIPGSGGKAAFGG

[3] = molecular target: T2, aret (Drosophila melanogaster) (UniProt E1JHG6); settings: 20 nM protein, 1.5 uM RNA pool; 20 mM HEPES pH 7.8, 70 mM KCl, 10 mM NaCl, 10% glycerol, 2 mM DTT, 0.1 ug/uL BSA; 30 min, 4 C (protocol of this paper; not …); cited from earlier work
T2 sequence: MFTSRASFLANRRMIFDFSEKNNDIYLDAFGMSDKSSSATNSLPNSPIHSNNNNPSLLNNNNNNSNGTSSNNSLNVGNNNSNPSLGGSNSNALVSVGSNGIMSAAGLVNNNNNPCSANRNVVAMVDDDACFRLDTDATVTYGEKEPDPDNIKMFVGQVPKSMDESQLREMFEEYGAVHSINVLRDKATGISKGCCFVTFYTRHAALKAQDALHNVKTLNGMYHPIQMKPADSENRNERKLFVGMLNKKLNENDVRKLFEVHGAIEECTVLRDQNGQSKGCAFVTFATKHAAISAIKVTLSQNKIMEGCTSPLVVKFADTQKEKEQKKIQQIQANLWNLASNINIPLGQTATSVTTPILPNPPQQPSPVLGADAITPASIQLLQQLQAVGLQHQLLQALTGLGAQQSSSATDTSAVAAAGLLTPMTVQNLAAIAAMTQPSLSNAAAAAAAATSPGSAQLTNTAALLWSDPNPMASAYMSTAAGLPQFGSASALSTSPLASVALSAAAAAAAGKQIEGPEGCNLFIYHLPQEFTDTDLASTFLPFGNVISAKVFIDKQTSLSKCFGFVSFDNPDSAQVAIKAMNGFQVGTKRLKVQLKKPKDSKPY

[4] = molecular target: T3, NCU09742 (Neurospora crassa) (UniProt Q7SEI3); settings: 20 nM protein, 1.5 uM RNA pool; 20 mM HEPES pH 7.8, 70 mM KCl, 10 mM NaCl, 10% glycerol, 2 mM DTT, 0.1 ug/uL BSA; 30 min, 4 C
T3 sequence: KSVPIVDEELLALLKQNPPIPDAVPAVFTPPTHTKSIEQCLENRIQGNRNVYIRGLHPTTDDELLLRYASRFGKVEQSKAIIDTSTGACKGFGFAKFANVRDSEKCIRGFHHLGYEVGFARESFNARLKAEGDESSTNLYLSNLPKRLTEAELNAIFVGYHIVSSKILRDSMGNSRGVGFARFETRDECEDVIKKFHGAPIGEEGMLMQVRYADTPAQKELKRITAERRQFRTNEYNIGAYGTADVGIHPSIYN

[5] = molecular target: T4, LmjF.27.2100 (Leishmania major) (UniProt E9ADJ0); settings: 20 nM protein, 1.5 uM RNA pool; 20 mM HEPES pH 7.8, 70 mM KCl, 10 mM NaCl, 10% glycerol, 2 mM DTT, 0.1 ug/uL BSA; 30 min, 4 C
T4 sequence: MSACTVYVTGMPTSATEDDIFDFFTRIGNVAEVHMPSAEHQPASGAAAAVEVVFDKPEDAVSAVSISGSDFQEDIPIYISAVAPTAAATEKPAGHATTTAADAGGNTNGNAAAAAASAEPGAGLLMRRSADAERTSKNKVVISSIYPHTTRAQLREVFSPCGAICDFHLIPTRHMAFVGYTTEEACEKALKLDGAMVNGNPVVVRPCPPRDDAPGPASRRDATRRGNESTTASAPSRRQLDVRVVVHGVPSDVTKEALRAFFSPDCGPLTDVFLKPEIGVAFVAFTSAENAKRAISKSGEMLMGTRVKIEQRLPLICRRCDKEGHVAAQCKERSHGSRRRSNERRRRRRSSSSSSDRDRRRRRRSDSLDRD

[6] = molecular target: hnrnpa0a (Danio rerio) (UniProt Q6NYB0); settings: 20 nM protein, 1.5 uM RNA pool; 20 mM HEPES pH 7.8, 70 mM KCl, 10 mM NaCl, 10% glycerol, 2 mM DTT, 0.1 ug/uL BSA; 30 min, 4 C
[7] = molecular target: T5, Tb11.01.3940 (Trypanosoma brucei) (UniProt Q382W9); settings: 20 nM protein, 1.5 uM RNA pool; 20 mM HEPES pH 7.8, 70 mM KCl, 10 mM NaCl, 10% glycerol, 2 mM DTT, 0.1 ug/uL BSA; 30 min, 4 C
T5 sequence: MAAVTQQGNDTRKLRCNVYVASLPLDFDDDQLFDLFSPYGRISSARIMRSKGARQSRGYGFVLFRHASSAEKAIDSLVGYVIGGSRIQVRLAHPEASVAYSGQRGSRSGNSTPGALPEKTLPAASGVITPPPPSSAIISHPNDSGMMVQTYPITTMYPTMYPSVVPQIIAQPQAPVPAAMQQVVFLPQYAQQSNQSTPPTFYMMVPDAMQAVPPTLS

[8] = molecular target: T6, PK27183.1 (Cannabis sativa) (UniProt A0A7J6I1V8); settings: 20 nM protein, 1.5 uM RNA pool; 20 mM HEPES pH 7.8, 70 mM KCl, 10 mM NaCl, 10% glycerol, 2 mM DTT, 0.1 ug/uL BSA; 30 min, 4 C
T6 sequence: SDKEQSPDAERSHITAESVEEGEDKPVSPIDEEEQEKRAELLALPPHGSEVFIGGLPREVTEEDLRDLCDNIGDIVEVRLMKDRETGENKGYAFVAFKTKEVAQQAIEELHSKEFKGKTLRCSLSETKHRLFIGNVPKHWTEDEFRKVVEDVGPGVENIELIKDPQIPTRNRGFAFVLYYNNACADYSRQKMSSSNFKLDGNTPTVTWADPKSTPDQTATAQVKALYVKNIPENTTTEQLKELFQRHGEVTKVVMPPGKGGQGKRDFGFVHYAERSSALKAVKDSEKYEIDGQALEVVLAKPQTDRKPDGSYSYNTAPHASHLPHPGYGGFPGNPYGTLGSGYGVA

[9] = molecular target: T7, LmjF.25.0500 (Leishmania major) (UniProt Q4QA45); settings: 20 nM protein, 1.5 uM RNA pool; 20 mM HEPES pH 7.8, 70 mM KCl, 10 mM NaCl, 10% glycerol, 2 mM DTT, 0.1 ug/uL BSA; 30 min, 4 C
T7 sequence: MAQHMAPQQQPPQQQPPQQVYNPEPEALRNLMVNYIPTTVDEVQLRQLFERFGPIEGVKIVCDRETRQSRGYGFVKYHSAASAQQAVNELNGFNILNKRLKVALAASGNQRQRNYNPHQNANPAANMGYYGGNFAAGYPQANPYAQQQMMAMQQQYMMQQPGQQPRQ

Chain of hnrnpa0a (Danio rerio) (Q6NYB0 entry or part of it): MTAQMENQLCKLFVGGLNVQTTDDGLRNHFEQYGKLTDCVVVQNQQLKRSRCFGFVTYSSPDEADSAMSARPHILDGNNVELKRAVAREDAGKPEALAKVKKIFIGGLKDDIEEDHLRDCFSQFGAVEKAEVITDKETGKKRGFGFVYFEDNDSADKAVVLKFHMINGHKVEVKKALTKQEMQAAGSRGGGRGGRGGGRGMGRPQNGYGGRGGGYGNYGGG
Chain of estExt_fgenesh1_pg.C_Chr_03.00010087 (Ostreococcus tauri) (A0A096P7J9 entry or part of it): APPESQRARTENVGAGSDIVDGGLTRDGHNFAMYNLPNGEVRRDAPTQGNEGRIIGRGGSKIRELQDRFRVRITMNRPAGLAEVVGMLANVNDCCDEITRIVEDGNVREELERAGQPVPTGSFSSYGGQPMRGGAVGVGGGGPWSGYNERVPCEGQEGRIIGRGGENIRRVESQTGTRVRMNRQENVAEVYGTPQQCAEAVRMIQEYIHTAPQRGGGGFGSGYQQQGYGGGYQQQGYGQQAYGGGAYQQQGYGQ

For ACGCGA [RNAcompete motif RNCMPT00694], the binding signal (z-score (mean of top ten 7-mers)) [1] was 10.9.

Work on AUUAGGA [RNAcompete motif RNCMPT00684] yielded a binding signal (z-score (mean of top ten 7-mers)) [2] of 8.79.

For UNUGUGU [RNAcompete motif RNCMPT00003], the binding signal (z-score (mean of top ten 7-mers)) [3] is listed as 21.4.

Substance AUUAUUA [RNAcompete motif RNCMPT00676] has a binding signal (z-score (mean of top ten 7-mers)) [4] of 9.27.

Work on GGAGGA [RNAcompete motif RNCMPT00667] yielded a binding signal (z-score (mean of top ten 7-mers)) [5] of 6.1.

In the case of UAGGA [RNAcompete motif RNCMPT00677], the binding signal (z-score (mean of top ten 7-mers)) [6] is reported as 9.94.

CUUAACC [RNAcompete motif RNCMPT00695] gave a binding signal (z-score (mean of top ten 7-mers)) [7] of 14.8.

AGACACA [RNAcompete motif RNCMPT00685] showed a binding signal (z-score (mean of top ten 7-mers)) [8] of 13.3.

UAGUUU [RNAcompete motif RNCMPT00689] showed a binding signal (z-score (mean of top ten 7-mers)) [9] of 11.6.
